Measurements from patent publication US20240010720A1 (IOMX THERAPEUTICS, published 2024).
Like-named read-outs stand apart in the source and are kept apart here.

What was measured:
[1] = target: T1, human IGSF11 (VSIG3) on cells (human, UniProt Q5DX21 23-431); assay: FACS, DMS 273 cells
T1 sequence: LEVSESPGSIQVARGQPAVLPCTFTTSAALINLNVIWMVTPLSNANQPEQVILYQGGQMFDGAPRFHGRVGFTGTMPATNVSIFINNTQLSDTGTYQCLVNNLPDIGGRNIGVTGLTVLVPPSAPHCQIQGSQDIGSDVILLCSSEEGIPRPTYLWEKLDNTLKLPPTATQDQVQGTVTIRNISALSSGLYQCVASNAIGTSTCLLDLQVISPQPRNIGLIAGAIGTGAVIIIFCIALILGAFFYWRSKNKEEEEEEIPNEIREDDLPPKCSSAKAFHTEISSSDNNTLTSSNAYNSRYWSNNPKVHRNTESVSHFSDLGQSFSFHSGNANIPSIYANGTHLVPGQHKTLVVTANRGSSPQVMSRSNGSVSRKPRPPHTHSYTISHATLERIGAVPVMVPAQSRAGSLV

[2] = target: T2, His-tagged extracellular domain (ECD) of human IGSF11 (VSIG3) (human, UniProt Q5DX21 23-241); assay: ELISA EC50 grade, IgG1
T2 construct: partly bought (SinoBiological 13094-H08H); also called IGSF11-HIS; HIS-IGSF11; not shown: HIS6 tag
T2 sequence: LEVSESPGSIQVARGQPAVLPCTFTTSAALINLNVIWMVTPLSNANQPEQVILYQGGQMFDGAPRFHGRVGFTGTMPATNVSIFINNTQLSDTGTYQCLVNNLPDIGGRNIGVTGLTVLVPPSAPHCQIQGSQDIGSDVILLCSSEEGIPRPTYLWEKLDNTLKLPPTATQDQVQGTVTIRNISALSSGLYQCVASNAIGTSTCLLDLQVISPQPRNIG

[3] = target: T1, human IGSF11 (VSIG3) on cells; assay: FACS, HEK cells expressing IGSF11
[4] = target: T1, human IGSF11 (VSIG3) on cells; assay: FACS, IgG1-format antibodies; DMS 273 cells (D) treated with IGSF11 siRNA (KD)
[5] = target: T1, human IGSF11 (VSIG3) on cells; assay: FACS, IgG1-format antibodies; M579-A2-luc cells (M) treated with IGSF11 siRNA (KD)
[6] = target: T1, human IGSF11 (VSIG3) on cells; assay: FACS, IgG1-format antibodies; DMS 273 cells (D) treated with scrambled control siRNA (SC)
[7] = target: T1, human IGSF11 (VSIG3) on cells; assay: FACS, IgG1-format antibodies; M579-A2-luc cells (M) treated with scrambled control siRNA (SC)
[8] = target: T1, human IGSF11 (VSIG3) on cells; assay: FACS, IgG1-format antibodies; CL-11 cells (C), a line that does not express IGSF11 (specificity control), IGSF11 siRNA (KD)
[9] = target: T1, human IGSF11 (VSIG3) on cells; assay: FACS, IgG1-format antibodies; CL-11 cells (C), a line that does not express IGSF11 (specificity control), scrambled control siRNA (SC)
[10] = target: T3, recombinant human IGSF11 (VSIG3) extracellular domain (ECD) (human, UniProt Q5DX21 23-241, biotinylated where captured on streptavidin); assay: SPR, IgG1
T3 construct: also called biotinylated recombinant ECD-IGSF11; IGSF11 (ECD domain)
T3 sequence: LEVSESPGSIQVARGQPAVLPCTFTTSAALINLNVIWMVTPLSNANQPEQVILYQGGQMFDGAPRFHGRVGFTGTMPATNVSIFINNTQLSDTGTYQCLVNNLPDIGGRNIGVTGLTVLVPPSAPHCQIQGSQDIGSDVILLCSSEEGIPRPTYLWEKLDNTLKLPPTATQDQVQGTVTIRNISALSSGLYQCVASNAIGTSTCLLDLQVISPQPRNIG

murine IGSF11 on cells [11] = target: T4, murine IGSF11 on cells (mouse, UniProt P0C673 23-428); assay: FACS, CT26-IGSF11 cells, IgG
T4 construct: UniProt P0C673; also called MC38-IGSF11 (murine); CT26-IGSF11 (murine)
T4 sequence: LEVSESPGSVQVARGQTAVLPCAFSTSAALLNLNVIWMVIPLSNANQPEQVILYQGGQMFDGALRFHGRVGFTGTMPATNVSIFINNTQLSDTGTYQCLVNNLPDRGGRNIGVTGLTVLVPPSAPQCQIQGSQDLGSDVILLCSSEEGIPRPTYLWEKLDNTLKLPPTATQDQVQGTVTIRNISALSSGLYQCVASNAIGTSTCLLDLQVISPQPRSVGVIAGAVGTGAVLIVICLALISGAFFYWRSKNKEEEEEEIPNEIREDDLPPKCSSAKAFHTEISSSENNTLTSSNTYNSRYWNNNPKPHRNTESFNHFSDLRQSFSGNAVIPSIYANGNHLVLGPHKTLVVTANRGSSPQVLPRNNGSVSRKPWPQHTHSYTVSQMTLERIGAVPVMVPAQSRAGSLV
From the text: (§1) Unbound antibodies were removed by washing the cells three time with FACS buffer. Bound antibodies were detected with a mouse anti-human IgG antibody conjugated with AlexaFluor647.

murine IGSF11 on cells [12] = target: T4, murine IGSF11 on cells; assay: FACS, MC38-IGSF11 cells, IgG
From the text: as §1

[13] = target: T3, recombinant human IGSF11 (VSIG3) …; assay: ELISA, Fab
Method: (§2) In order to identify IGSF11-specific binding ABPs, monoclonal Fabs expressed from E. coli were generated from the enriched set of anti-IGFS11 antibody-expressing phage. After bacterial lysis, the Fabs were tested for their binding properties and cross-reactivity profile on recombinant ECD-IGSF11 (human, mouse and cynomolgus monkey) by standard ELISA. Briefly, biotinylated recombinant ECD-IGSF11 from human, mouse, or cynomolgus monkey were immobilized at 2 ug/mL on a streptavidin-coated 384-well Maxisorp plate. The surface was blocked with 2% (w/v) skim milk powder in PBST. After three wash cycles with PBST, a bacterial lysate of each of the anti-IGSF11 Fabs in 2% (w/v) skim milk powder was applied to the immobilized IGSF11 and incubated for 1 h. After removing all unbound Fab by 3 wash cycles with PBST, bound Fab antibodies were detected with a goat anti-human Fab antibody conjugated with horseradish peroxidase. After three wash cycles with PBST the ELISA was developed with TMB substrate.

Streptavidin = target: T5, Streptavidin (UniProt P22629 37-163, limits assumed); assay: ELISA, Fab
T5 construct: also called negative antigen; irrelevant antigen
Method: as §2

[14] = target: T6, recombinant murine IGSF11 extracellular domain (ECD) (mouse, UniProt P0C673 23-240, biotinylated); assay: ELISA, Fab
T6 construct: also called Mouse IGSF11; murine ECD-IGSF11
T6 sequence: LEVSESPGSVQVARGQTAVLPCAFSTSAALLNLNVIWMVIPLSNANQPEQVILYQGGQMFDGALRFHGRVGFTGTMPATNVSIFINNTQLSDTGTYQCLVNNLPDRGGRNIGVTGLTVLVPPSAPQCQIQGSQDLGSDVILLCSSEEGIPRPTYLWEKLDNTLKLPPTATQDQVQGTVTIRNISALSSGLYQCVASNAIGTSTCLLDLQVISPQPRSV
Method: as §2

[15] = target: T7, recombinant cynomolgus monkey IGSF11 extracellular domain (ECD) (cynomolgus monkey, UniProt Q5DX21 23-241 (human entry), biotinylated); assay: ELISA, Fab
T7 chain: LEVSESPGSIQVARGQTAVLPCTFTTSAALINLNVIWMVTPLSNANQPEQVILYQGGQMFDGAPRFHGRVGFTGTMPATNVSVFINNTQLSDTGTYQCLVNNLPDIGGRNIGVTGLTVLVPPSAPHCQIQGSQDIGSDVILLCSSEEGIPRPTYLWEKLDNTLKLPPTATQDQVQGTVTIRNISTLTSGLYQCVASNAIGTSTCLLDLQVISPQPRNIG
Method: as §2

[16] = target: T8, IGSF11 ECD fused to murine-Fc (human; mouse, UniProt Q5DX21 23-241); assay: ELISA, IgG
T8 construct: also called Fc-fusion IGSF11 ECD; full-length ECD of IGSF11; not shown: murine Fc
T8 sequence: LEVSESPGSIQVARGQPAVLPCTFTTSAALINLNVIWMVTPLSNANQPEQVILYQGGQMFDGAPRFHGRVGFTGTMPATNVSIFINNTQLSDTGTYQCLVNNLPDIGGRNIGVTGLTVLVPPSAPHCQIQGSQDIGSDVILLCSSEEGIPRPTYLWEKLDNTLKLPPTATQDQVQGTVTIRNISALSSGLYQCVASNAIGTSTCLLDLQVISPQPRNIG

[17] = target: T8, IGSF11 ECD fused to murine-Fc; assay: ELISA, IgG; remark: listed apart in the source
[18] = target: T1, human IGSF11 (VSIG3) on cells; assay: FACS, MDA-MB-231-IGSF11 cells, IgG
From the text: as §1

T5 sequence (P22629 37-163 limits assumed): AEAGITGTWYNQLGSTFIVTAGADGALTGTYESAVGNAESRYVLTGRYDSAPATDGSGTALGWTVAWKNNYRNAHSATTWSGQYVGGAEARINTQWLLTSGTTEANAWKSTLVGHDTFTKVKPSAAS

B1: A-007 (IgG1 format) (antibody, V domains shown)
VH: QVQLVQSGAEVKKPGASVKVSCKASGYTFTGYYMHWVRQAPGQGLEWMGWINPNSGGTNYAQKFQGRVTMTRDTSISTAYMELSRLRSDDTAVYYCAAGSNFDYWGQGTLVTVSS
VL: QSALTQPASVSGSPGQSITIACTGSSSDIGSFSYVSWYQQRPGKAPTLIIYGVNNRPLGVSRRFSGSKSGNTASLSISGLQAEDEADYYCSSYTRRSTVIFGGGTKLTVL
notes: human IgG1 format
- EC50 [1]: < 10 nM
- EC50 [2]: < 0.02 nM
- EC50 [3]: < 10 nM
- percentage binding (FACS heat-map) [4]: 34.2%
- percentage binding (FACS heat-map) [5]: 9.15%
- percentage binding (FACS heat-map) [6]: 82.3%
- percentage binding (FACS heat-map) [7]: 65.6%
- percentage binding (FACS heat-map) [8]: 13.2%
- percentage binding (FACS heat-map) [9]: 8.88%

B2: A-013 (IgG1 format) (antibody, V domains shown)
VH: EVQLVESGGGLIQPGGSLRLSCAASGFTVSSNYMSWVRQAPGKGLEWVSVIYSGGSTYYADSVKGRFTISRDNSKNTLYLQMNSLRAEDTAVYYCARGNPYYYGDLQVNFDYWGQGTLVTVSS
VL: QAVVTQEPSLTVSPGGTVTLTCASSTGAVTSAYYPNWFQQKPGQAPRALIYSTSNKHSWTPARFSGSLLGGKAALTLSGVQPEDEADYYCLLYYGGAWVFGGGTKLTVL
notes: human IgG1 format
- Kd [10]: 100 to 250 nM
- EC50 [1]: > 50 nM
- EC50 [2]: < 0.02 nM
- EC50 [3]: 10 to 50 nM

B3: C-016 (IgG1 format) (antibody, V domains shown)
VH: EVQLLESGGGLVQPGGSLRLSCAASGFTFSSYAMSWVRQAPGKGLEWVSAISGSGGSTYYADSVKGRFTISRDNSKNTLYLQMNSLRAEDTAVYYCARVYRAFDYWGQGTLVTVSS
VL: ASVLTQPPSVSAAPGQKVTISCSGSSSNIGNNYVSWYQQLPGTAPKLLIYDNNKRPSGIPDRFSGSKSGTSATLGITGLQAEDEADYYCHLYTEAESHWVFGGGTKLTVL
notes: wildtype human IgG1 and kappa or lambda constant regions
- EC50 (murine IGSF11 on cells [11]): 20 to 50 nM
- EC50 (murine IGSF11 on cells [12]): 50 to 100 nM

B4: C-013 (Fab format) (Fab, V domains shown)
VH: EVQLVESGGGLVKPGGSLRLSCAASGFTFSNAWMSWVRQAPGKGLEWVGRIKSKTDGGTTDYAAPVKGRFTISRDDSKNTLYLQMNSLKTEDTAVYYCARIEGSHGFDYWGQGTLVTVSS
VL: SYELTQPPSVSVSPGQTASITCSGDKLGDKYASWYQQKPGQSPVLVIYQDSKRPSGIPERFSGSNSGNTATLTISGTQAEDEADYYCASYLHTPKQFVFGGGTKLTVL
notes: Fab in E. coli lysate
- A450 [13]: < 1
- A450 (Streptavidin): < 0.1

B5: C-010 (Fab format) (Fab, V domains shown)
VH: QVQLVQSGAEVKKPGSSVKVSCKASGGTFSSYAISWVRQAPGQGLEWMGGIIPIFGTANYAQKFQGRVTITADESTSTAYMELSSLRSEDTAVYYCARGYGEYYPAFDVWGQGTLVTVSS
VL: SYELTQPPSVSVSPGQTASITCSGDKLGDKYASWYQQKPGQSPVLVIYQDSKRPSGIPERFSGSNSGNTATLTISGTQAEDEADYYCASYAHTHSTWVFGGGTKLTVL
notes: Fab in E. coli lysate
- A450 [14]: < 1
- A450 [15]: < 1
- A450 (Streptavidin): < 0.1

B6: C-027 (Fab format) (Fab, V domains shown)
VH: QVQLVQSGAEVKKPGSSVKVSCKASGGTFSSYAISWVRQAPGQGLEWMGGIIPIFGTANYAQKFQGRVTITADESTSTAYMELSSLRSEDTAVYYCARENIPSYYDSSGRQDAFDIWGQGTMVTVSS
VL: SYELTQPPSVSVSPGQTASITCSGDKLGDKYASWYQQKPGQSPVLVIYQDSKRPSGIPERFSGSNSGNTATLTISGTQAEDEADYYCQSYLHKSHGAVFGGGTKLTVL
notes: Fab in E. coli lysate
- A450 [13]: < 1
- A450 [15]: < 1
- A450 (Streptavidin): < 0.1

B7: A-022 (IgG1 format) (antibody, V domains shown)
VH: EVQLLESGPGLVKPSQTLSLTCTVSGGSISSGGYYWSWIRQHPGKGLEWIGYIYYSGSTYYNPSLKSRVTISVDTSKNQFSLKLSSVTAADTAVYYCARASRSTDYYFDYWGQGTLVTVSS
VL: QPGLTQPPSMSYGLGQTATLTCTGNRNNIGDQGAAWLQQHQGHPPKLLSYRNNNGPSGISERLSASRSGNTASLTISGLQPEDEADYYCSAWDSSLRAWVFGGGTKLTVL
notes: human IgG1 format
- EC50 [16]: < 1 nM
- EC50 [1]: 10 to 50 nM
- EC50 [2]: < 0.02 nM
- EC50 [3]: 10 to 50 nM

B8: C-006 (Fab format) (Fab, V domains shown)
VH: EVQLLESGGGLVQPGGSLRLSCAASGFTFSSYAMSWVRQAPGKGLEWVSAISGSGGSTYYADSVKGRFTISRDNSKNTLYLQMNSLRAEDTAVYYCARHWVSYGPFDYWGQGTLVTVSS
VL: DIQMTQSPSSLSASVGDRVTITCRASQSISSYLNWYQQKPGKAPKLLIYAASSLQSGVPSRFSGSGSGTDFTLTISSLQPEDFATYYCQQSHQSPPITFGQGTKVEIK
notes: Fab in E. coli lysate
- A450 [15]: < 1

B9: C-012 (Fab format) (Fab, V domains shown)
VH: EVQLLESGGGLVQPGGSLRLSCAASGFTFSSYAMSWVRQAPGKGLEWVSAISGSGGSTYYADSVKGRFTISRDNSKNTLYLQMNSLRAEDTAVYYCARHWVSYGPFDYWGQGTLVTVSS
VL: DIQMTQSPSSLSASVGDRVTITCRASQSISSYLNWYQQKPGKAPKLLIYAASSLQSGVPSRFSGSGSGTDFTLTISSLQPEDFATYYCQQSHQSPPITFGQGTKVEIK
notes: Fab in E. coli lysate
- A450 [15]: < 1

B10: C-017 (IgG1 format) (antibody, V domains shown)
VH: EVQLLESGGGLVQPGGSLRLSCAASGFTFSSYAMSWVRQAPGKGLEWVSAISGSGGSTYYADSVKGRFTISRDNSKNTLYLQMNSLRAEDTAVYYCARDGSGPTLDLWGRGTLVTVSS
VL: DIQMTQSPSSLSASVGDRVTITCRASQSISSYLNWYQQKPGKAPKLLIYAASSLQSGVPSRFSGSGSGTDFTLTISSLQPEDFATYYCQQHRYIPPWTFGQGTKVEIK
notes: as for B3
- EC50 [17]: 1 to 20 nM
- EC50 (murine IGSF11 on cells [11]): 20 to 50 nM
- EC50 (murine IGSF11 on cells [12]): 50 to 100 nM
- EC50 [18]: 15 to 25 nM

B11: A-004 (IgG1 format) (antibody, V domains shown)
VH: EVQLVESGGGLVKPGGSLRLSCAASGFTFSSYSMNWVRQAPGKGLEWVSSISSSSSYIYYADSVKGRFTISRDNAKNSLYLQMNSLRAEDTAVYYCARGQLLWFGESALIDAFDIWGQGTMVTVSS
VL: EIVLTQSPSSLSASVGDRVTITCRASQSISSYLNWYQLKPGKAPKLLIYAASILQSGVPSRFSGSGSGTDFTLTISSLQPEDFAAYYCQQSYSTPRTFGQGTKLEIK
notes: human IgG1 format
- Kd [10]: 100 to 250 nM
- EC50 [16]: 1 to 20 nM
- EC50 [2]: < 0.02 nM
